Measured values as given in article PMC9616950, “A toxin-deformation dependent inhibition mechanism in the T7SS toxin-antitoxin system of Gram-positive bacteria” (Nature Communications, 2022).

B1: EsaG (natural protein)
chain: MTFEEKLSKIYNEIANEISSMIPVEWEKVYTMAYIDDGGGEVFFNYTKPGSDDLNYYTNIPKEYNISVQVFDDLWMDLYDLFEELRDLFKEEDLEPWTSCEFDFTREGELKVSFDYIDWINSEFGQIGRQNYYKYRKFGILPETEYEINKVKEIEQYIKELEE
notes: also called antitoxin EsaG; full-length EsaG; source: E. coli BL21(DE3), purified (nickel column, ion exchange, Superdex 200); not shown: His6-SUMO, N-terminal, cleaved
B4: EsaDc H528A (EsaD residues 450-614, crystallised with EsaG) (domain or fragment)
chain: SPNYTKVEFGEHYARLRPKKLKANIEYTTPTGHIYRTDHKGRIKEVYVDNLSLKDGDRNSHAQRTVGGEDRLPDDDGGALIARMFGGSKDIDNLVAQSKFINRPFKEKGHWYNLEKEWQEFLNSGKEVKNIKMEVKYSGNSQRPTIFKVEYEINGERNIRRILNK
notes: source: E. coli BL21(DE3), purified (nickel column, ion exchange, Superdex 200); not shown: His6-SUMO, N-terminal, cleaved

Key:
[1] = molecular target: Avi-tagged EsaG, biotinylated (S. aureus) (UniProt Q2G178); assay: BLI; biotinylated Avi-tagged EsaG immobilised on streptavidin biosensors, EsaDc in solution at different concentrations; 300 mM NaCl, 30 mM NaH2PO4, 27 mM KCl, pH 7.2
[2] = molecular target: B4; assay: crystal structure; EsaDc-EsaG complex, 2.60 Å; hanging drop, 0.1 M Tris pH 8.5, 12% PEG6000, 0.15 M NaCl, 10% ethylene glycol, 0.5% Tacsimate pH 7.0, 1.0% PEG5000MME; conditions: both partners purified
[3] = molecular target: B1; assay: pull-down; His-SUMO-tagged protein on Ni-NTA beads with untagged protein (0.16 mM : 0.2 mM); 25 mM Tris-HCl pH 8.0, 1 M NaCl, 24 °C, 30 min; Coomassie-stained SDS-PAGE; conditions: both partners purified
[4] = molecular target: B1; assay: SEC; gel filtration of purified proteins and their mixtures; column and buffer not told for these runs; conditions: both partners purified
[5] = molecular target: the molecule itself; assay: crystal structure; EsaDc-EsaG complex, 2.60 Å; hanging drop, 0.1 M Tris pH 8.5, 12% PEG6000, 0.15 M NaCl, 10% ethylene glycol, 0.5% Tacsimate pH 7.0, 1.0% PEG5000MME

Molecule: EsaDc (EsaD residues 450-614, as used in the solution assays) (from UniProt Q2G179 450-614) (domain or fragment)
- Kd [1]: 460 nM

Molecule: EsaDc Y484A (from UniProt Q2G179 450-614) (domain or fragment)
- Kd [1]: 1670 nM

Molecule: EsaDc N562F (from UniProt Q2G179 450-614) (domain or fragment)
- Kd [1]: 860 nM

Molecule: B1
- binding result [2]: binds

B2: His-EsaDc-NFL (His-SUMO-tagged EsaD residues 450-503) (domain or fragment)
chain: SPNYTKVEFGEHYARLRPKKLKANIEYTTPTGHIYRTDHKGRIKEVYVDNLSLK
notes: also called His-tagged NFL; source: E. coli, purified; not shown: His-SUMO, N-terminal, kept
- binding result [3]: binds

B3: NFL (EsaD residues 450-503) (domain or fragment)
chain: SPNYTKVEFGEHYARLRPKKLKANIEYTTPTGHIYRTDHKGRIKEVYVDNLSLK
notes: 15N-labelled in one of the HSQC samples; The methods call the fragment NTL; also called EsaDc-NFL; NTL; source: E. coli BL21(DE3), purified (nickel column, ion exchange, Superdex 200); not shown: His6-SUMO, N-terminal, cleaved
- binding result [4]: binds

Molecule: B4
- binding result [5]: binds
